From patent publication US20170260508A1

Biological target: chimeric LILRB2-PILRβ receptor (aa 24-458 of hLILRB2) on mouse T cell hybridoma NFAT-GFP reporter cells (human), Q8N423
Test: cell-based or functional assay

chimeric LILRB2-PILRβ receptor (aa 24-458 of hLILRB2) on mouse T cell hybridoma NFAT-GFP reporter cells (human), Q8N423, sequence (Q8N423 other isoform, or with tags, fused parts or gaps mutant limits assumed, form in doubt): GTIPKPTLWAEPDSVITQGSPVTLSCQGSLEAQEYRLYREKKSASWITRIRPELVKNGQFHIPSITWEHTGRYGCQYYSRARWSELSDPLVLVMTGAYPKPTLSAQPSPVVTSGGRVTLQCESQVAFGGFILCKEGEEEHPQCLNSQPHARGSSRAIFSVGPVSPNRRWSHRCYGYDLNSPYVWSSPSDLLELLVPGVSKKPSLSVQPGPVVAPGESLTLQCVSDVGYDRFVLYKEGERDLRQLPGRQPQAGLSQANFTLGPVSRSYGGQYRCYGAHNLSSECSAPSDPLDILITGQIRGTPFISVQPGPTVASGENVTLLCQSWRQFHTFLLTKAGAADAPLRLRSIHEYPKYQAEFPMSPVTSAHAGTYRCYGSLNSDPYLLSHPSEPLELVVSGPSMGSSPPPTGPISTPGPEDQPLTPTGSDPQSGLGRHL

- GFP expression of LILRB2 reporter cells after 24 h with Angptl2 conditioned medium (2 µg/ml); control: mock medium: 18.9%
B1: Angptl2-FLAG, full-length human Angptl2 secreted from transfected 293T cells, Q9UKU9 23-493 (ligand, not shown: small tags and cut ends)
chain: QEDGFEGTEEGSPREFIYLNRYKRAGESQDKCTYTFIVPQQRVTGAICVNSKEPEVLLENRVHKQELELLNNELLKQKRQIETLQQLVEVDGGIVSEVKLLRKESRNMNSRVTQLYMQLLHEIIRKRDNALELSQLENRILNQTADMLQLASKYKDLEHKYQHLATLAHNQSEIIAQLEEHCQRVPSARPVPQPPPAAPPRVYQPPTYNRIINQISTNEIQSDQNLKVLPPPLPTMPTLTSLPSSTDKPSGPWRDCLQALEDGHDTSSIYLVKPENTNRLMQVWCDQRHDPGGWTVIQRRLDGSVNFFRNWETYKQGFGNIDGEYWLGLENIYWLTNQGNYKLLVTMEDWSGRKVFAEYASFRLEPESEYYKLRLGRYHGNAGDSFTWHNGKQFTTLDRDHDVYTGNCAHYQKGGWWYNACAHSNLNGVWYRGGHYRSRYQDGVYWAEFRGGSYSLKKVVMMIRPNPNTFH
